Molecular target: T1, recombinant human galectin-1 (human, UniProt P09382 2-135)
T1 construct: Used as the galectin selectivity control; also called hGal-1; Gal-1
Assay: solid phase fluorescent binding assay; galectin coated at 10 µg/ml, streptavidin R-phycoerythrin detection
Experimental: Recombinant hGal-7 or hGal-1 (10 μg/mL) was coated overnight at 4° C. on black, flat bottom, 96-well polystyrene microplates (Ultident®, Montreal, QC, Canada). Thereafter, the plate was blocked with Reagent diluent (PBS-BSA 1%) for 1h, then incubated with unlabeled hGal-7₍₁₂₉₋₁₃₅₎ (cold) for 60 min and finally incubated with biotin-labeled [Ah⁰]hGal-7₍₁₂₉₋₁₃₅₎ for 2h. Lastly, Streptavidin R-phycoerythrin (1/500, Jackson Immunoresearch®, West Grove, Pa., USA) was applied to samples for 30 min. All incubations were performed at room temperature and the washes between incubations were done with 20 mM potassium phosphate buffer pH 7.1. The plate was read by a Tecan® Infinite M1000 PRO microplate reader at excitation and emission wavelengths of 488 nm and 670 nm, respectively.

T1 sequence (P09382 2-135 limits assumed): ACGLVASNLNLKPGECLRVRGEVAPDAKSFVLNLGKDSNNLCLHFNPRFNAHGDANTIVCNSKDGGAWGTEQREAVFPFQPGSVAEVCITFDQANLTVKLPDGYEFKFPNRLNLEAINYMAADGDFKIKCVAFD

B1: biotin-labeled [Ahx0]hGal-7(129-135) (peptide)
peptide: LDSVRIF
HELM: PEPTIDE1{[O=C1N[C@H]2[C@H](CS[C@H]2CCCCC(=O)[*:2])N1].[O=C(CCCCCN[*:1])[*:2]].L.D.S.V.R.I.F.[am]}$$$$V2.0
SMILES: CC[C@H](C)[C@H](NC(=O)[C@H](CCCNC(=N)N)NC(=O)[C@@H](NC(=O)[C@H](CO)NC(=O)[C@H](CC(=O)O)NC(=O)[C@H](CC(C)C)NC(=O)CCCCCNC(=O)CCCC[C@@H]1SC[C@@H]2NC(=O)N[C@@H]21)C(C)C)C(=O)N[C@@H](Cc1ccccc1)C(N)=O
Q: Does B1 bind?
A: no binding
